Experimental data from article PMC8155523, “Non-covalent Interaction With SUMO Enhances the Activity of Human Cytomegalovirus Protein IE1” (Frontiers in Cell and Developmental Biology, 2021).

Biological target: T1, SUMO1 (UniProt P63165 1-97)
T1 construct: SUMO1, expressed from SUMO1-pQE80L; Uniformly 15N-labelled for NMR; Plasmid obtained from Rama Koti, TIFR, Mumbai; also called 15N-SUMO1; 15N-wt-SUMO1; source: E. coli BL21 (DE3), 15NH4Cl-M9 medium, purified (Ni-NTA, Superdex 75)
Experiment: NMR titration; IE1-SIM peptides titrated into ~0.3 mM 15N-SUMO1 or 15N-SUMO2 up to 1:4 (SUMO:SIM); 15N-HSQC, 298K, 800 MHz; PBS, 5 mM DTT, 10% D2O; CSPs fit to a 1:1 model
Conditions: both partners purified

T1 sequence (P63165 1-97): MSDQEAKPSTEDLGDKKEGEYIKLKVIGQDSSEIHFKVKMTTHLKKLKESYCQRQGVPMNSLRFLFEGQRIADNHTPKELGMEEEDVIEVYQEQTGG

Binder | Kd [µM]
PATIPLSSVIVAENSDQEE (Human Cytomegalovirus Immediate-Early protein 1 (IE1), peptide around SIM2 (VIVA, aa 416-419); source: synthetic peptide (Lifetein)) [IE1-SIM2 peptide] | 136 ± 32
RPLITKPEVISVMKRRIEE (Human Cytomegalovirus Immediate-Early protein 1 (IE1), peptide around SIM1 (VISV, aa 335-338); source: synthetic peptide (Lifetein)) [IE1-SIM1 peptide] | 134 ± 23.2
